According to the DeepSol protein solubility set:

Test: soluble on expression in E. coli; label from the status in PepcDB or PDB records

Sequence	soluble on expression in E. coli
MKISLVTVTFNSAKTLCDTIHSVLSQSYTNIEYIIVDGLSNDETVTLIKEYEPLFQGRLKWISEKDKGLYDAMNKGIRMSTGDIVGIINSDDFYHRGDVLEKVAESFEAGETEAIYGDVRFVNPDNLDRTVRYYSSKRFVPSLFRFGFMPAHPTFFTYRKYFDQFGYYKTNYKIAADYELLVRFLYVHRLKSKYLPLDFMKMRTGGASTASIKSNILLNKEIVRACKENGIWTCYPLLLLKYLVKVFELIFIKKLEHHHHHH	soluble
QSVLTQPPSVSAAPGQKVTISCSGSTSNIGNNYVSWYQQHPGKAPKLMIYDVSKRPSGVPDRFSGSKSGNSASLDISGLQSEDEADYYCAAWDDSLSEFLFGTGTKLTVLGQPKAAPSVTLFPPSSEELQANKATLVCLISDFYPGAVTVAWKADSSPVKAGVETTTPSKQSNNKYAASSYLSLTPEQWKSHKSYSCQVTHEGSTVEKTVAPTECS	soluble
MVYYIYHSAFVIEVEKSILIFDFYKFPSNKKKEKEEFFNRFIKRIDKKVYIFSTHSHSDHFNKEILTWLEMNENIKYILSDDIRIYKHKNFYFTKEGDSFELDNLKISTFGSTDLGSSFYVNTENKNIFHSGDLHFWHWEDDTPEEEKTMYDAYMVQLEKIKKLDRIDIAFVPVDPRLGVNTLEGVELFYKILKPKIIIPMHFSDDYSQMKNFIEKFKYNDDVKIIEIKDSMEKVLELEHHHHHH	not soluble
MGSDKIHHHHHHMNMFLGEGWQVKPAGGATGEAYIAEQGEQRLFLKRNSSPFLAVLSAEGIVPKLLWTKRLENGDVITAQRWVYGRELKAFEMKEPNVAHLLAKIHHSVELLDMFKRMGNDMLTPQRIIDDLKASMKRHECDDLLFQKGLKFLQTQQEAVNQEQYVVCHCDINHNNWMMSDAGELYLIDWDGATVADPALDLGLLLYSYVPRHEWKTWLANYGLEMSDHLLLRMHWYVVSQTISVMLSNMDRGKHAEAETWQDFLKTLLDDSF	not soluble
MSLAVNLTEKTAEQLPDIDGIALYTAQAGVKKPGHTDLTLIAVAAGSTVGAVFTTNRFCAAPVHIAKSHLFDEDGVRALVINTGNANAGTGAQGRIDALAVCAAAARQIGCKPNQVLPFSTGVILEPLPADKIIAALPKMQPAFWNEAARAIMTTDTVPKAASREGKVGDKHTVRATGIAKGSGMIHPNMATMLGFIATDAKVSQPVLQLMTQEIADETFNTITVDGDTSTNDSFVIIATGKNSQSEIDNIADPRYAQLKELLCSLALELAQAIVRDGEGATKFITVRVENAKTRDEARQAAYAVARSPLVKTAFFASDPNLGRLLAAIGYAGVADLDTDLVEMYLDDILVAEHGGRAASYTEAQGQAVMSKAEITVRIKLHRGQAAATVYTCDLSHGYVSINADYRSEGHHHHHH	soluble
GPGSMEPKSVEEYSQQNYWIGRYEVEEQHDWFLSVRQPTIAALCDELLKVFQQRERLHSADGNVEGDQPALRVLHLGTGNSSLCMDLYEAVRERQLPFALHQVAMDYAPNVIERMQSKYSPDILPNAQWIVGDVRKLEEFREYGPFDAVIEKGTMDAIEADKNRPEMKGDVEAMLHGVDTLLKHAKGYGAFLQVTWVAPHLRLPYTKGDAFAWGDQVRYSLLGESDIYRLFVYTVRE	soluble
MSLNTPVEFNLPDSIELEREEVEEDLLTSGDEILLSYSSYIPPKLHSMTSHLQLRVDFFVNLLQFTRANFIYKVSPQVKLKLLESYEILNCSLSLSSYLSSDTDLTTQWHRVLLSEEVTEEELMLHQLKRFPELFGKFLAEIDEPLRSSSDIKFKVAAADLVNCVIYHSCLERGESEYRCNQLNLDLTEVGDDLPWFINFSIPDSLNKILLHLFYSFEDGNVPDEYHDKLLEIIKSLYYMCKQSDVWYAVKGSNAYEAGYQGFNLNSTLSNHLTWIQILLKIGRSVDALNIADFYHDLSGLVETLSSFDYEKAHPLYEEYFTKYGYQFSKTLFTTVIEQGKINDLFSRFPSHHDDLVRFFDEYPQYGHVSWIGNIFDQQYNAAAEVLVSVSSPDAAKKLDLNQLQVRLSIAKLSALAEEPILNMDLLNTIQSGLDLIDSQKKAAELAGEHTSLSKRYLETESHYQSILEKLKTNIVLSEYELVGIYTVLDDVTAFAKALHFLSLIKTIPEDSRQFLVSMIWRKCILFNDWNHTSDDLSTALYATLLAFFKEEYYRAGIPLPHVPKLTAPISKDTLSEQLFAGVECGNLLLDGAEADTSALSAVQTDMESRIRFLIGSAHSEAGASCVVNYETNTVDEGHHHHHH	soluble
MGSDKIHHHHHHAASVTPSSALLKKSNSYYRSHARALGKKYKLAFDAQSALKKNGKAVIYVNTKDKTLNQSVKLAMAYWNKKLGKTEFTQGSKKNHTLTFGVSTAAASKSDQSDAWWTPMTKKLDVRWSYYTAEKQNIGISMTNQLNKAFYKQYADTIETKAKANLAAKGITTSDKDYLSPFNREASNVETSLPAYTTLKKDVCLVKSTLANEGRKYEYASTIAHEMGHVMGLNHSPNKQDLMYFESGNNNVYSFKKVKAGLSKYNPITTTDKNRAKLALKIYVAAH	not soluble
MRPDFGTDGRLPSALSMGTADVAFHLATGGNPVPLAFTFGFEGRAPTLDSVRARVAERVHHVPALRYRIARDRRKFRRVDRIAVDRHVHEAWLPEDTDGSATSRLMLSRPMSTDDRPPWDVWLVHGPAERHTLVYRTDHTFQDGMGAAYTARALLGDHPEGGPAPQRPARPTAHGLADALGEVVAAFRAPTPKPAFDGDFTGRVDVCHADTPLARLRAIARAHGGTVTDVYLAALSHAVRTWYLKDTGSAHPPLPVSIPMSVRAPGEEYAPGNRMVTARLLLPCDEESPQRALARVVAGTGRLRESRRRDAMRLLLSASPRALGATVGTRLVRGAFVAGPVSSVNFGTALVHQGVAARRSAVFAGVASGIRCVTTLTSQHDTACLTVVHDEALATADELPDLWLAALLELERPLEHHHHHH	not soluble
MDQLFYNGPPDYVEIEDRAITTEPGASIQAAPGAIWMEALPAIEGIPAGLEYLAYLDTVMVHQVKEVLEILTGWESKNKYAIRNKNGQQCYYAFEESNAWERQCCGSQRGFTMHIVDNFNKNVLIVKRELRCCADSFCGCLLGLQNICTIESLSTGLLGTVLQGYGCTNSFYNILDKDGNLIFLVDGQGCCTSCCCEDKDFTIKTPDSSVPIGSITKKWGGLLREAFTDADTFAVTFPIDLDVKLKAILLGATFLIDFVEFENNN	not soluble
MKSMEIDVEHIFDCLDRYGKGELTEKQLTKGVTDDEKMFLIMHQGLLGGNTDSEEEFNVLDWLGEEESFFMIVEINENLCRKAESILEEIGVEMPDVIESFLKQLVETKQLPVVVND	not soluble
MEYWHYVETTSSGQPLLREGEKDIFIDQSVGLYHGKSKILQRQRGRIFLTSQRIIYIDDAKPTQNSLGLELDDLAYVNYSSGFLTRSPRLILFFKDPSSKDELGKSAETASADVVSTWVCPICMVSNETQGEFTKDTLPTPICINCGVPADYELTKSSINCSNAIDPNANPQNQFGVNSENICPACTFANHPQIGNCEICGHRLPNASKVRSKLNRLNFHDSRVHIELEKNSLARNKSSHSALSSSSSTGSSTEFVQLSFRKSDGVLFSQATERALENILTEKNKHIFNQNVVSVNGVDMRKGASSHEYNNEVPFIETKLSRIGISSLEKSRENQLLNNDILFNNALTDLNKLMSLATSIERLYKNSNITMKTKTLNLQDESTVNEPKTRRPLLILDREKFLNKELFLDEIAREIYEFTLSEFKDLNSDTNYMIITLVDLYAMYNKSMRIGTGLISPMEMREACERFEHLGLNELKLVKVNKRILCVTSEKFDVVKEKLVDLIGDNPGSDLLRLTQILSSNNSKSNWTLGILMEVLQNCVDEGDLLIDKQLSGIYYYKNSYWPSHI	soluble
MAIHNRAGQPAQQSDLINVAQLTAQYYVLKPEAGNAEHAVKFGTSGHRGSAGRHSFNEPHILAIAQAIAEERAKNGITGPCYVGKDTHALSEPAFISVLEVLAANGVDVIVQENNGFTPTPAVSNAILVHNKKGGPLADGIVITPSHNPPEDGGIKYNPPNGGPADTNVTKVVEDRANALLAGGLQGVKRISLDAAMASGHVKAVDLVQPFVEGLADIVDMAAIQKAGLTLGVDPLGGSGIEYWKRIAEHYKLNLTLVNDQVDQTFRFMHLDKDGAIRMDCSSECAMAGLLALRDKFDLAFANDPDYDRHGIVTPAGLMNPNHYLAVAINYLFQHRPLWGKDVAVGKTLVSSAMIDRVVNDLGRKLVEVPVGFKWFVDGLFDGSFGFGGEESAGASFLRFDGTPWSTDKDGIIMCLLAAEITAVTGKNPQEHYNELAARFGAPSYNRLQASATSAQKAALSKLSPEMVSASTLAGDPITARLTAAPGNGASIGGLKVMTDNGWFAARPSGTEDAYKIYCESFLGEEHRKQIEKEAVEIVSEVLKNA	soluble
GSHMFMPSDRSTERCETVLEGETISCFVVGGEKRLCLPQILNSVLRDFSLQQINAVCDELHIYCSRCTADQLEILKVMGILPFSAPSCGLITKTDAERLCNALLYG	soluble
MDKIRYGIMSTAQIVPRFVAGLRESAQAEVRGIASRRLENAQKMAKELAIPVAYGSYEELCKDETIDIIYIPTYNQGHYSAAKLALSQGKPVLLEKPFTLNAAEAEELFAIAQEQGVFLMEAQKSVFLPITQKVKATIQEGGLGEILWVQSVTAYPNVDHIPWFYSREAGGGALHGSGSYPLQYLQYVLGKEIQEVTGTATYQQGATDSQCNLALKFAEGTLGNIFINVGLKIPSEMTICGTKGQIVIPNFWKTDCAYYTDAQGNTVKWSEQFTSEFTYEINHVNQCLQDKKLTSPVMTKELTIATVKIVESFYQEWFDNE	not soluble
MLEEEQALLEKVVETLSNDIEEKEEKIEKLRRSYTNGNGALANIYEDYRSGFKSGIGARPGR	not soluble
MEQPEKNIKLAYDGEIHLAVGASKTEKKWKNRQMSWSDFTQRLKTPTVTQETVEDYKKMPKSKQGEVKDVGAFIGGWLKEGRRKRGNTQQRSLVTLDADSTTLDFWDDVQLLFDHAAAVYTTHSHLVKGPRYRLIIPLSRPVTAEEYEPLARKLAEFFGMDNFDDTTYQAERLMYWPSHSIDGEYFTDNIDLPWVDPDEILSQYEDWRDASFWPESSRGHSIRERQAKKAGDPLEKKGIVGAFCRTYDIISAIETFLPDIYGSTGREDRWTFLEGSTSGGLVIYDDKFAYSHHGTDPVGDQLVNAFDLVRIHLFGDLDEDVKPTTRIDRYPSFKAMREFAMEDKQVKTLIQSEKLSQALEDFDGELDELEEDDKDWFTKLDLEIDEYGQIMASAKNLEVIMLNDPNLKKKIFMNSFSNRIEVKDNLPWRKLDRDKMWKDSDDAGLRVYIEKIYGIVNRGKIDDALVQEIERNSYDPVKEYLESLHWDGVPRVETLLIDYLGAEDTPFIRVVTKKFLTAAVGRIFVPGIKFDYMLVTSGPQGIGKTLLPAKLAGDWFSNSLEGVTGKDSYEALQGVWIMEMGELSATKKADIEATKHFISKQEDIFRVAYGRHKSYFKRRCVFWGTTNDNEFLRDKTGNRRFWPVDVGIQPIKNKVWEMTDETRNQIWAEAVELWQAGEPLYLTDEQEKLALEAQEMHTETSSMEGEILEYLEIPITEDWYKRSKQERREYIQGWGTDIQEEGEIVRNKVCIAEVWNELYNGDSKNIHPAKAAEIRQVLSHLSGWEKNSKGNKGRLRFGPGYGVQVAYLRVTP	not soluble
